Where a chain is given by its changes, count along the chain named.

Results on three molecules are retold here after patent US10925971B2, “Methods of treating PRLR positive breast cancer” (Regeneron Pharmaceuticals, Inc., priority 2016, dated 2021).

The subject of one experiment is HEK293 parental cells. Kind of experiment: FACS cell surface binding. More on the design: species or system human. As to the method:
(§1) The ability of anti-PRLR antibodies to selectively bind PRLR expressing cell lines was next determined. Human, monkey Macaca fascicularis, and mouse PRLR constructs with an HA tag were stably introduced into HEK293 cells via Lipofectamine 2000-mediated transfection methodology. Transfectants (HEK293/hPRLR, HEK293/mfPRLR and HEK293/mPRLR) were selected for at least 2 weeks in complete growth media plus G418.
(§2) Cell surface expression of PRLR on 293/hPRLR cells was assessed via FACS analysis. Briefly, 1×10^5 cells were incubated with 10 μg/ml of Control antibody I, or an isotype control for 30 min on ice in antibody dilution buffer. Following two washes with antibody dilution buffer, cells were incubated with 10 μg/ml of PE conjugated anti-human secondary antibodies for 30 min on ice. Following two additional washes, samples were run on a Hypercyt® cytometer and analyzed in ForeCyt™ (IntelliCyt, Albuquerque, N. Mex.). The mean fluorescence intensities (MFI) were expressed as fold change above isotype control levels (background). FACS binding confirmed that Control I selectively bound to 293/hPRLR expressing cells with MFIs that were 30 fold above background (isotype ctrl) levels and less than 2 fold binding on parental cells.
(§3) Next, the anti-PRLR antibodies were tested via FACS for selective binding to the engineered overexpressing PRLR HEK293 cell lines, as well as to non-expressing HEK293 cells and a native PRLR expressing cell line (T47D).

In experiment [1] the target is T1, monomeric human PRLR (hPRLR.mmh; SEQ ID NO:401) (Homo sapiens, UniProt P16471).
T1 construct: soluble monomeric (hPRLR.mmh); mmh (myc-myc-hexahistidine) (C)
T1 sequence (P16471 with tags, fused parts or gaps): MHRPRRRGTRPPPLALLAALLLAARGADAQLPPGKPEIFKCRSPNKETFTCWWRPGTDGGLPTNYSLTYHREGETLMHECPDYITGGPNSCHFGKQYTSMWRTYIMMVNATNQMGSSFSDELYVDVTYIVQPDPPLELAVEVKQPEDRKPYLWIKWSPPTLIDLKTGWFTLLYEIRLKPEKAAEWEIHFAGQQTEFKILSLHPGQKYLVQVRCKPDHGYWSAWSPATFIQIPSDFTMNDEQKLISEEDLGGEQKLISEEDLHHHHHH
The experiment can be described thus: Surface plasmon resonance (Biacore T200), antibody-capture format. It counts as binding. The settings on record: analyte hPRLR.mmh. As to the method:
(§4) Antibodies, expressed as human IgG1 Fc (i.e., “H1H” designations), were captured onto an anti-human Fc sensor surface (mAb-capture format), and soluble monomeric (hPRLR.mmh; SEQ ID NO:401, or Macaca fascicularis (mf) PRLR.mmh; SEQ ID NO:403) or dimeric (hPRLR.mFc; SEQ ID NO:402) PRLR protein was injected over the sensor surface. Measurements were conducted on a T200 Biacore instrument. Kinetic association (ka) and dissociation (kd) rate constants were determined by processing and fitting the data to a 1:1 binding model using Scrubber 2.0 curve fitting software.
A general note: In SPR one partner is held on a chip, and binding of the other changes the refractive index at the surface.

Experiment [2] has as its system Macaca fascicularis PRLR (mfPRLR.mmh; SEQ ID NO:403). Described as above. It counts as binding. To be noted: analyte mfPRLR.mmh. As to the method: as §4
In experiment [3] the target is T2, dimeric human PRLR (hPRLR.mFc; SEQ ID NO:402) (Homo sapiens, UniProt P16471).
T2 construct: dimeric (hPRLR.mFc)
T2 sequence (P16471 with tags, fused parts or gaps): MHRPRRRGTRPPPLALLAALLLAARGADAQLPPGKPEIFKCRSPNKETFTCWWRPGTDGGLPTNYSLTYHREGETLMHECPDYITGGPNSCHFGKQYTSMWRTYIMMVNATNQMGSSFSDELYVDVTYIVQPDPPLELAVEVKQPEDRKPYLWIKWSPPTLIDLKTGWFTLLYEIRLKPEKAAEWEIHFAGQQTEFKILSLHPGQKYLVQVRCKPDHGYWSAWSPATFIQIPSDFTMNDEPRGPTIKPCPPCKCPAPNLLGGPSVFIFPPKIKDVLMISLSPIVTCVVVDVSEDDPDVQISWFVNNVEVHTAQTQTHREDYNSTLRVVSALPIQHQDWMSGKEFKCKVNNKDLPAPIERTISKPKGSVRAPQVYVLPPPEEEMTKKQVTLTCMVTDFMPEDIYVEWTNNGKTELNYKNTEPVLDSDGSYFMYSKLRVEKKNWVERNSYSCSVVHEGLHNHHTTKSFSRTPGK
Described as above. To be noted: analyte hPRLR.mFc. It counts as binding. Here is the method: as §4

The target in experiment [4] is T3, native PRLR expressing T47D cells (Homo sapiens, UniProt P16471).
T3 construct: a native PRLR expressing cell line (T47D); endogenous in cells; host or cells: T47D
T3 sequence (P16471 25-622): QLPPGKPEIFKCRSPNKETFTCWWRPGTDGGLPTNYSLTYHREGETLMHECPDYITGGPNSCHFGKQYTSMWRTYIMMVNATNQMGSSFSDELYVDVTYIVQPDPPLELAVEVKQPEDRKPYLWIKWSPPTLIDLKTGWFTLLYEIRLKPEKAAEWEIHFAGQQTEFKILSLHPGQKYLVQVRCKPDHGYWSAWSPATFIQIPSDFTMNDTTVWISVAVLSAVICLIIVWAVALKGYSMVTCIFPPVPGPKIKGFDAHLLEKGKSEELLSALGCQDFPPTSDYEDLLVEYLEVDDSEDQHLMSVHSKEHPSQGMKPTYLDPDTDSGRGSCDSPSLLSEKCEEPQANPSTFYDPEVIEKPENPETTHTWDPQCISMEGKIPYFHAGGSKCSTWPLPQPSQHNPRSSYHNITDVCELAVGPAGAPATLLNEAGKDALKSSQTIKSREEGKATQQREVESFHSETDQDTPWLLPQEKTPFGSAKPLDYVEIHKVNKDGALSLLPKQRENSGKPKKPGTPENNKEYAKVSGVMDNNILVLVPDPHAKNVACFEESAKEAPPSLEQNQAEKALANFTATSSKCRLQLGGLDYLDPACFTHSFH
The experiment can be described thus: FACS cell surface binding. As to the method:
as §2, §3

In experiment [5] the target is T4, human PRLR on HEK293/hPRLR cells (Homo sapiens, UniProt P16471).
T4 construct: HA; expressed in transfected cells; host or cells: HEK293
T4 sequence (P16471 25-622): T3 sequence (P16471 25-622)
The experiment can be described thus: FACS cell surface binding. Here is the method: as §1, §2, §3

Experiment [6] addresses T5, mouse PRLR on HEK293/mPRLR cells (Mus musculus, UniProt Q08501).
T5 construct: HA; expressed in transfected cells; host or cells: HEK293
T5 sequence (Q08501 20-608): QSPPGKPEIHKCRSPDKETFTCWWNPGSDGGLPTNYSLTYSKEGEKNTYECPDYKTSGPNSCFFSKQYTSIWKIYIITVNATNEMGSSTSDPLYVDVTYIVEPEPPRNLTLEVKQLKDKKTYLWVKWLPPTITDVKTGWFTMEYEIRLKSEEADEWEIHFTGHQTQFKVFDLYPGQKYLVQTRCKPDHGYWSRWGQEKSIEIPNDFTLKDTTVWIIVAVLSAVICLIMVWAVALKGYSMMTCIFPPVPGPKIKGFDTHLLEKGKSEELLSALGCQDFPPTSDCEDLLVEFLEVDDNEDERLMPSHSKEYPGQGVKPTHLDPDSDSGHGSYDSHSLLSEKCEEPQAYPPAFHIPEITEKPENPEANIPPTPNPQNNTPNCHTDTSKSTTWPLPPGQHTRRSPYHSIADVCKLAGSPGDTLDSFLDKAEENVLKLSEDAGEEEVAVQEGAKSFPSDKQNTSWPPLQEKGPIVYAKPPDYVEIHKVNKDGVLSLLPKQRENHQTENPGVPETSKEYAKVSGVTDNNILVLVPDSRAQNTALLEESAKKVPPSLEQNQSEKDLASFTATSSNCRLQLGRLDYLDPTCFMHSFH
The experiment can be described thus: FACS cell surface binding. Here is the method:
as §1, §2, §3

In experiment [7] the target is T6, monkey PRLR on HEK293/mfPRLR cells (Macaca fascicularis, UniProt A0A2K5WXK1).
T6 construct: HA; expressed in transfected cells; host or cells: HEK293
T6 sequence (A0A2K5WXK1 25-619): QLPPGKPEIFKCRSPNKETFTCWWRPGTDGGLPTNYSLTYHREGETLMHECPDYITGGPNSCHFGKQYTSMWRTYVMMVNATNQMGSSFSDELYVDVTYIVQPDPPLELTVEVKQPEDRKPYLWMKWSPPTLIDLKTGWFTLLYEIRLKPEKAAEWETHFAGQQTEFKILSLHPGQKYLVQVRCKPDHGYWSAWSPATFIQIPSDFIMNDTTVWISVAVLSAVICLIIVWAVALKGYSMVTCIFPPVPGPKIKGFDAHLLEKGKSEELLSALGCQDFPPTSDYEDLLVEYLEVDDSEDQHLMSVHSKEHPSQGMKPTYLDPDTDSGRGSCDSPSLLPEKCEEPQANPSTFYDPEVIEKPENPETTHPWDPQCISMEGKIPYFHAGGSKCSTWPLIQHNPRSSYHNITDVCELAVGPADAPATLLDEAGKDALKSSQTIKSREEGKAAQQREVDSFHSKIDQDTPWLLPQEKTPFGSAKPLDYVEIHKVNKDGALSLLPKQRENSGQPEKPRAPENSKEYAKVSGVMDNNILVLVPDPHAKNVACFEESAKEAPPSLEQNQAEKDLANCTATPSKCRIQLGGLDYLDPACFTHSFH
Kind of experiment: FACS cell surface binding. As to the method:
as §1, §2, §3

Sequence of Macaca fascicularis PRLR (mfPRLR.mmh; SEQ ID NO:403) (as listed by the source): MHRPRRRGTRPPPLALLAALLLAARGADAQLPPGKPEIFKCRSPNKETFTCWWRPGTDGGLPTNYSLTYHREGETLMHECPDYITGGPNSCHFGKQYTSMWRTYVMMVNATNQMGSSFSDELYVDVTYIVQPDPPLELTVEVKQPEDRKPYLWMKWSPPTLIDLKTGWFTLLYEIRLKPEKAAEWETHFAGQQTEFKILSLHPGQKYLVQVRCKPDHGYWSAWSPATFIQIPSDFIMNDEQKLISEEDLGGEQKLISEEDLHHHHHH

B1: H1H6790P: fully human anti-PRLR antibody, human IgG1 Fc; HCVR/LCVR SEQ ID NOs 114/122 (antibody, V domains shown)
VH: EVQLVESGGGLVQPGGSLRLSCAASGFTFSSYAMTWVRQAPGKGLEWVSAITGSVGNTYYADSVKGRFTISRDNSKNTLYLQMNSLGAEDTAEYYCAKGAGMTTNWYLDLWGRGTLVTVSS
VL: DIVMTQSPDSLAVSLGARATINCKSSQSVLYSSNNQNYLTWYQQKPGQPPKLLIKWASTRESGVPDRFSGSGSGTDFTLTISSLQAEDVAVYYCQQYASSPYTFGQGTKLEIK
Turning to B1, the “FACS Cell Binding” value in the experiment with HEK293 parental cells turned out to be 1 Fold Above Background; in experiment [4] it was 34 Fold Above Background; in experiment [5], 37 Fold Above Background; in experiment [6] it was 1 Fold Above Background; in experiment [7], 24 Fold Above Background. Besides, the ka in experiment [1] (25° C.) came out at 565000 M/s; in experiment [1] (37° C.) it was 940000 M/s; in experiment [2] (25° C.), 389000 M/s; in experiment [2] (37° C.), 615000 M/s; in experiment [3] (25° C.), 542000 M/s; in experiment [3] (37° C.), 646000 M/s. For the same molecule, the kd was 0.000799 s⁻¹ in experiment [1] (25° C.); 0.00329 s⁻¹ in experiment [1] (37° C.); 0.000793 s⁻¹ in experiment [2] (25° C.); 0.00321 s⁻¹ in experiment [2] (37° C.); 0.000104 s⁻¹ in experiment [3] (25° C.); 0.000198 s⁻¹ in experiment [3] (37° C.).

B2: H1H6781P: fully human anti-PRLR antibody, human IgG1 Fc; HCVR/LCVR SEQ ID NOs 50/58 (antibody, V domains shown)
VH: EVQLVESGGDLVQPGESLRLSCTASGFTFNSYEMNWVRQAPGKGLEWVSYISSSGGTKYYVDSVKGRFTISRDNAKKSLYLQMNSLRADDTALYYCARLNGVDVFDIWGQGTMVTVSS
VL: DIQMTQSPSSLSASVGDRVTITCRASQDIFNYLAWFQQKPGKVPELLISAASTLQSGVPSRFSGSGSGTYFTLTISSLQPEDIATYYCQRYNSAPLTFGGGTKVEIK
Take B2: the “FACS Cell Binding” value in the experiment with HEK293 parental cells was 1 Fold Above Background; in experiment [4] it was 40 Fold Above Background; in experiment [5] it was 37 Fold Above Background; in experiment [6] it was 1 Fold Above Background; in experiment [7], 26 Fold Above Background. Besides, the ka is 208000 M/s in experiment [1] (25° C.); 339000 M/s in experiment [1] (37° C.); 143000 M/s in experiment [2] (25° C.); 247000 M/s in experiment [2] (37° C.); 257000 M/s in experiment [3] (25° C.); 436000 M/s in experiment [3] (37° C.). Further, the kd in experiment [1] (25° C.) was 0.000127 s⁻¹; in experiment [1] (37° C.), 0.000309 s⁻¹; in experiment [2] (25° C.), 0.000141 s⁻¹; in experiment [2] (37° C.), 0.000267 s⁻¹; in experiment [3] (25° C.), 6.05e-05 s⁻¹; in experiment [3] (37° C.), 9.84e-05 s⁻¹.

B3: H1H6785P: fully human anti-PRLR antibody, human IgG1 Fc; HCVR/LCVR SEQ ID NOs 98/106 (antibody, V domains shown)
VH: EVQLVESGGGLVQPGGSLRLSCAASGFTFSSYEMNWVRQAPGKGLEWISYISSRGGTIYYADSIKGRFTIYRDNARNSLYLQMNSLRAEDTAIYYCARLSGVDIFDIWGQGTMVTVSS
VL: B2 VL with D28G, F30S, F36Y, E45K, S49Y, A50F, S65G, Y70D, I83V
Take B3: the “FACS Cell Binding” value in the experiment with HEK293 parental cells stood at 1 Fold Above Background; in experiment [4], 40 Fold Above Background; in experiment [5] it was 37 Fold Above Background; in experiment [6] it was 2 Fold Above Background; in experiment [7], 26 Fold Above Background. Besides, the ka came out at 301000 M/s in experiment [1] (25° C.); 426000 M/s in experiment [1] (37° C.); 227000 M/s in experiment [2] (25° C.); 297000 M/s in experiment [2] (37° C.); 263000 M/s in experiment [3] (25° C.); 456000 M/s in experiment [3] (37° C.). The kd amounted to 0.000171 s⁻¹ in experiment [1] (25° C.); 0.000484 s⁻¹ in experiment [1] (37° C.); 0.000167 s⁻¹ in experiment [2] (25° C.); 0.00045 s⁻¹ in experiment [2] (37° C.); 6.07e-05 s⁻¹ in experiment [3] (25° C.); 0.000117 s⁻¹ in experiment [3] (37° C.).
